Laboratory results reported in patent publication US20070021593A1.
Where a chain is given by its changes, count along the chain named. Names and notes keep the numbering of the source. Values joined by “and” are separate entries in the source; they are usually repeats but may differ in a detail not shown here. Equal values may be shown once. One block for each molecule: values may come before it.

Legend:
[1] = molecular target: CXCL8 receptors on bovine peripheral blood neutrophils; assay: preliminary radioligand binding on bovine neutrophils
[2] = molecular target: CXCL8 receptors on bovine peripheral blood neutrophils; assay: biotCXCL8 (1000 ng/ml) on medium-treated bovine neutrophils; alkaline phosphatase-streptavidin and ABTS
[3] = molecular target: CXCL8 receptors on bovine peripheral blood neutrophils; assay: biotCXCL8 binding inhibition on bovine neutrophils; 10 ng/ml unlabeled CXCL8 2 h at 4 C, wash, then 1 ug/ml biotCXCL8; ELISA read-out
[4] = molecular target: CXCL8 receptors on bovine peripheral blood neutrophils; assay: competition with 20 pM 125I-CXCL8 on 10^6 bovine neutrophils, 45 min on ice
[5] = molecular target: CXCL8 receptors on bovine peripheral blood neutrophils; assay: competition with 20 pM 125I-CXCL8 on bovine neutrophils; reference wildtype CXCL8
[6] = molecular target: CXCL8 receptors on bovine peripheral blood neutrophils; assay: cell-based or functional assay
[7] = molecular target: CXCL8 receptors on bovine peripheral blood neutrophils; assay: biotCXCL8 binding inhibition on bovine neutrophils; 10 ng/ml analogue 2 h at 4 C, wash, then 1 ug/ml biotCXCL8; ELISA read-out

concentration that just saturated the high affinity receptors [1]: 20 pM
Molecule: 125I-CXCL8 (from UniProt P79255 23-101) (ligand)

OD405 [2]: 0.5 to 0.6 OD405
Molecule: biotinylated CXCL8 (from UniProt P79255 23-101) (ligand)

percent of biotCXCL8 binding inhibited [3]: 30%
IC50 [4]: 120 pM
Molecule: CXCL8 (wild type, unlabeled) (from UniProt P79255 23-101) (ligand)

fold more effective than wildtype CXCL8 in inhibiting 125I-CXCL8 binding [5]: 100 fold
IC50 [4]: 4 pM
IC50, inhibition of bovine neutrophil chemotaxis to 1 ug/ml (129 nM) CXCL8 [6]: 110 pM
concentration for complete blocking of bovine neutrophil chemotaxis to 1 ug/ml CXCL8 [6]: 10 nM
concentration for complete inhibition of bovine neutrophil chemotaxis to human CXCL5, CXCL1 or CXCL8 [6]: 3 nM and 20 nM
concentration reducing by 50% the bovine neutrophil chemotactic response to 10 ng/ml human CXCL8 [6]: 0.04 nM
concentration reducing to 50% the bovine neutrophil chemotactic response to 1 ng/ml human CXCL1 [6]: 0.26 nM
concentration reducing to 50% the bovine neutrophil chemotactic response to 1 ng/ml human CXCL5 [6]: 0.06 nM
reduction of the chemotactic response of bovine neutrophils to 1 ug/ml (129 nM) CXCL8 by 12.9 pM analogue [6]: 33%
percent of subsequent biotCXCL8 binding blocked [7]: 95%
B1: bovine CXCL8(3-74)K11R/G31P (ligand)
chain: TELRCQCIRTHSTPFHPKFIKELRVIESPPHCENSEIIVKLTNGNEVCLNPKEKWVQKVVQVFVKRAEKQDP

percent of CXCL8 binding blocked [7]: 48%
B2: bovine CXCL8(3-74)K11R/P32G (ligand)
chain: B1 chain with P29G, P30G
